In the domain aggregation screens of Martell et al. (2025):

Test: soluble fraction after stress (log2 fold change); higher = more stays soluble; pooled small domains, quantitative proteomics
Conditions: stress: 50 degC
Method in brief: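 Pooled custom libraries of small protein domains were measured in a high-throughput format, with quantitative proteomics as the read-out. Each library was stressed at 50°C. Aggregation propensity is given as the base-two logarithm of the fold change in how much of each protein stays soluble after the stress. Higher values mean a larger share of the protein remains in solution.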

Row | Sequence | soluble fraction (log2)
1 | HMNPETPAQQAVRKRLIVSVQFYRRLKDTPLKAVWQVAARDTLVNGYNLFLKRNIHAFNDRTLSTPSALS | -0.0672
2 | HMERAYGVRVSLRLDDPFRTLLGADWSRTHWFASAEERDAALLEMSRKHEFSRPGDQPALVYEKVQN | -0.728
3 | HMAMTITKIEKTSQQKIYYFTDSGRVFKKMSDRSATIAVDDRVELEGGVLGSKFFVTANGSRVKVKEV | -0.516
4 | HMKIDNIIIYITGGVKKEGVYELPDGSRISDAIEQAEGLKANADTSSINLAYKLEDGMKIKIPLQGEN | -0.0298
5 | HMVFSKEELLFNSDSLLSLYPNDNKLLETILSEKIDHAVKNNDMSMYKEILVIDPKNPLANYHLLM | 0.0579
6 | HMHDNPLSAQEQRVLDLIAAGKTSKEIASQLFLSDGTVRNYTTSIFNKLNANNRVEAINIAQENGW | 0.486
7 | HMRQYTPEQLETAVLVLEEVRQGRRLDRALRSHPMPDGRLIAKHVLVAAYRKLVAEGTWKEDPEFLSRIRM | -0.237
8 | HMDNMFVEERQALIYEELQSNGRVRVKDLSKKFNVSEDLIRKDLNVLEKEGKLRKIYGGAVLAK | 0.568
9 | HMPLTRSDVKRIQLWLMAHGYDIGSPDGVFGDKSNRAANAFLSQQGRSLETVTLGKLYDILEAN | -2.01
10 | HMVDGAHKQQAAVQALTPALKVLAAAPEGKKGQAIQALRAVLKQHGRWLDDATAQQVHEQLLAAGDAQGWQ | 0.297
11 | HMEEIQLILAKNLKSIREKEKLSLEKVSQLTGVSKTMIGQIERGDSSPTLTTIWKIANGLKVSFTSLINNP | -2.01
12 | HMSRSSQMVNFIRLLSQEKKVSVNSIFSSSVQLSDGIIVKINDFYYRVNLSLDQKTYSLVEVS | -0.486
13 | HMPEMHIYTKEGKIHITHIDENEEIKIYNPLGQIIYTGSPQDIPVLEGKGLYIIYIGKSAVEVLES | -1.65
14 | HMKKYEFIEDLPGVGPATAQKLRDLGYHTVESLAMATARELEPIGVGEKKAFSMIEAARSAIGFS | 0.283
15 | HMTGRHEEAIQELKRTLELHPQKPKIFLLLGVSYLRLNNLKKAVEAFNTVLLLQPKNQKALTMLKEIKKR | 0.0384
16 | HMRRPRGVFNLVPRGFKRFGFITPDGGGEDMFAHLENVRAGHVVEDRNAVEYGIGRGPDGRDQAVDIVPVP | 0.049
17 | HMYSYSFTSSEGSTFEGQLIRVEESQVTILRYADQKEFSIPKSRFIEADQVYFERWAIENPQL | -4.33
18 | HMRQEIIEDSRKLLEESLKRYDLTYQEFIDTLKSKNMNVESTLINIIKNQSSLDLVLRNLGLIAP | -0.0959
19 | HMVNHVGITVSNLERSIQFYEALTGKKIANQDTIGGKRMAQTQGLADTLIKYANLHLDNLNIDLLEYVE | -0.386
20 | HMADLKRLNEQIHYLGQYLSTKATYKEFLQANNKKIYRSEHQDEIAKYEEAAQFLKRSSPDGTIPTMKDLR | -0.0887
21 | HMNSHLEEGRHGLQIGDPGIVRARIESDPEGETDMPVVVIDGRNISWNEFGRMVATYTGFQFKLEM | -0.515
22 | HMVEPIKAPMPGMVLKILVEPGQQIEKGQGVLILEAMKMENVLKSSAAATVKSIKVSEKSAVEKGAILVEL | -0.109
23 | HMEARNDWAQQSRADAEFGGEKLDENLAVAKKAVEALASPELKTLLEQSGLGNHPEIIRLFYRAGRSLS | 0.132
24 | HMHGSSVEIPNIYGLPASEAVQLLDKADLRYEVIDSVYTTEVPKGAVYDLSPKAGSRVKAGRIIFLTLNA | -0.756
25 | HMDPLGALSDRERQVLALIGQGHGLQAIADQLGVSYKTAANTSSALKKKLGVDGINGLMKFALDSG | -0.505

Row | Sequence | soluble fraction (log2)
26 | HMTIKTAFPAEDLAKPDNFKSLLYYFGLLTIRGTKWGSTLLAIPNLTVREQLYSYLVEAYRSADL | 0.291
27 | HMLEQSYYEKTDEIIELHGAKASSLIPVMQDVQAEYRYLPGELLSYIADKLGIPLAKAYSVATFYENFS | -0.358
28 | HMEVALEVPELRGLSMKQATNTLMASGFEVQKVGSGTIYAQFPLPGERLRTGYAVTIRGKTRDLG | -0.258
29 | HMVMIPDLVGETIEDAKDILEGLGFEVEVRSEFPESDWGRPFARVTSLSPSAGQEVAKGTLVIIRSF | -0.288
30 | HMAVGTASNLIGKDIEAYAPIDGSQSSDDTKTISGKVESVHIKDGVVYMNVKDSQSENIIEVEYGALIKVN | -0.498
31 | HMDRERFIKLGREIARAAFENVGKKATDKVLNSAAKKLRLEDGDEVLARLGSAEIEARSVVQAVYPDLI | 0.452
32 | HMKEKDAYTSEILDTLKNAKLLVVEGTVYPLLTRLKNDGLLNYRWEESTSGPPRKYYGLTDEG | -0.445
33 | HMEMSLGEKLKQARLTKNFSQEYMAEVLQISQKTYSNFENNKTKPDFSQIEEISKVLETSILEFLT | -0.152
34 | HMQETILFGQQKAINNLSSDTGLSENDLDSYLKKRYKKPLYQLTQSEGADIINGFQDGSLSKNSILDYIKP | 0.16
35 | HMDSSSYSAKVGTLIQETRQARGMTQAQLAQALGTSQSAINRIEKGGQNISLDMLNRISEVLSSQIVTLNP | -0.0626
36 | HMAPPTAEFFAHLPAEALSAVRRSVEEGNARGIDEAILRVETLDGEAGRVLRGLAARYEYGRILELTQR | 0.117
37 | HMPPTEQVYRSHVPPQYDGFPIEKYFTTRFSYQDVEEWSRQILAGKIEVNGKTALIGQILSASDLTVTRA | -0.855
38 | HMDPVQLEVIKKLNLLNAQKPKDIYALRDVLSEMFPQSDIRLLLKELLDKGYIYWNGHEVIYSHEMF | -0.217
39 | HMSREMIKSELESISGLGKSGIEKLYTHFINIENIKSASLENIRNIPGISYKVADNIYKHFH | -0.195
40 | HMNKDEFLRRLEDALSGEVPASVIRENLNYYADYLSQELGKGRTMDEIIEEIGEPNIVARTIINSAEAA | 0.0708
41 | HMSSYAEVMERSKYLQLHKYKIWKSETDGFWRTYYLNEQGKRKMKKLKHSEDMIDFVIEYVQNNE | -2.2
42 | HMHPKDVPTRRELEVLQAVSEGLSTAEIGLRLDITENTVETFRRRLIQKFDAKNAIDLVVKAMAQGWIKV | -1.16
43 | HMQQPIPGEAYLTRRPGSDHFQIAFTIDGHRVRESSGTSDKVAAAALAQKRYEEVWREIKLGEK | 0.2
44 | HMVEVPYSEFLKELDAGNVKDVYVSNGESQIQFTKKDQKQWNLSYKTGPIPGDDLVKRLQNADVENFT | 0.0879
45 | HMLKREDEVIVVAGKDKGKRGTITQLVGDDRVIVAGVNMVKRHTKPNPNLGQPGGIVEREASLHISNV | 0.296
46 | HMPPSGPWEQDPPSEAQLKPFNEAMKRTADIDVDLYEKAKKALNDGTITKGNIYDWINREDSPWVLQDGS | 0.141
47 | HMTFEAKKGYINADMSVNVRETASTSATVIITLNPNTEVKVVGEENDFYKIEYKEYKGYVAKRLISDSQVQ | -0.166
48 | HMRPILTLEEAKAKALAHAGLKADQVTFTEAKLDWDDGKQVYDIEFYTADFKEYDYEIDAKTGEVLEVDY | -0.452
49 | HMLPPVFLTIDANENVIVRKDGEPVQTLNKFELGAFARSQAENSAEQPVVLAADKSIKYEVVMEVI | 0.0698
50 | HMAGVSVTSLTTFWRLAADTPDTPSGADDPSGWSRTEPSIPDGYEGKLYRTIRTIMSDGTATWTSPD | -0.357

Row | Sequence | soluble fraction (log2)
51 | HMKEHDTLALRLTAILRKLNDGEKLVPRELAEEFNVGIRTIQRDLTERLSFLDLEKTNGAYSLPTRNL | -0.428
52 | HMDGEITLYKVVGYIKASDFDDKKNGFVIADDYITKRQAEDTMYEWKRKKTYPYLEIKEYKGKDPYK | 0.295
53 | HMPYFLKQSNTRSKGLYLQIYHSFYVPGKGSRNKSYKAIGYVSELIKNGIEDPITYAKNLVDELNNNSSTP | -3.75
54 | HMTVTKYGKKILEIVSSSRSHMTAEEIFDALRQTYPTVVLATVYNNLNRLWQDDLIRKVSVEGMPDRYD | -1.22
55 | HMNQYRKLDGDVQNQIIYILSEYPKLPATIVYQRLLDTNTIVKKDVSLSTVNRFVQKYKDSKGIT | -1.05
56 | HMGGSLADAKRFLADLLADGPVPAKGVRADADGAGHTWPTIRRAQKALGIEATKTGMKGGWVWALPR | -0.034
57 | HMDKLNKELVSRMMDDAAWKELSKDFPWTEQLLEKYMNYVDWKEISRNYNVVWTKSLLEKFKHRLDWHE | -1.44
58 | HMLPADETEARVLNVLGSEPLHVDEIRNQADLPIEKISATLAMMELKGMVRQVGGMNYVAMR | 0.0898
59 | HMETIVGIDPDSKKKIVLKKGIKGRPDYLSFNKKNYSLPSELKEKNVSLEQALEIINDKKSNKKKIK | 0.334
60 | HMPVSDLQSALRNTLSKGDATDPAFRQRVYRAAMDALERATGSESDPQRRSEQKQRLIAVIRDMEASYRR | 0.277
61 | HMKPATSITFIPSERPDLVEQLSKITFDKKDSLYENYINLNWLTFEAISVYMREGDIIGFST | 0.0284
62 | HMSLDLNENEKTIFDIIQNKKTIRLSELKIEAGLSNKGWDKAMKSLTKQGLAKVVKTEDQLTVKLL | -0.0993
63 | HMQNSPVFAASDIEDIRVGMTVEHQRFGQGRVMSIEGNGPNKKTTVLFEGIGEKQLLLQYAKLKIV | 0.157
64 | HMARTIINLPLRNSVDESYNTTVNILQANGFKEVSYNGETVWKKGTGLLTAMQYIKIEFTDTTLVVSGWVQ | ≥ 0.62
65 | HMRITEGEIVEIQEGDNRALVGVGEKLEGIISLDEIRGADGKLLFNVGDKITVMVMGHYNERPK | 0.15
66 | HMKSKPRVPFGSLVEMGILKPGSILFDPKGKIKTKVMVDGSIKYKETEGSIHKVAAQIMGTESYNGWTYW | 0.355
67 | HMTQTGEVIRWDAERGFGFIATADGRRHVFFHVRDFRGGAAPGVGLRVGFEEIQVGGKGPRAMDVRPL | -0.48
68 | HMDYSWNFFIGFSVVDKVAGNLGTIEEIDDKTINTLFLVKNDDEDLIIPATEDFVEKIDAKKRILYLNLPE | -1.56
69 | HMLPDAESFSYEVPYTKGDGGTYNYEGKIKAQNADAARDEIIRQAQVYFQMNPQFTPDYPSTTITSLD | 0.171
70 | HMAAESWTEKSRALAAAGLVVMGRDAQTKIEELTNLAPLIEAANASNTRLLTSQSIDELLSIVPTEENL | 0.0724
71 | HMQDTYQVKLLTNLNIRKSPNGTIVQKGGAKKGIIYTIVETSGTWGRLKSNAGWISVSDKYVTK | -3.43
72 | HMHSDWITWWYLKDKRFDDDYSLWDRQPVHPEYFEVVKEFKAPPESNPGGLDEVKRILRTYIPDAFAP | -0.976
73 | HMRQQAFWALVPEERDVLDETGAPLFRIGPTAWALVIEDRGEVFVVRDEDGRVGYLHEVDGVTR | -1.52
74 | HMSFNLSETKKLILEEIQKGVSSVTQIAATAGISKGMTYNHLRELKLMGYIADGDSGYVITDAGKIAS | -0.04
75 | HMEKIDYLSIGHRLRAYRIASSLKAEDVAESLGISRAAVYRLEKGEIVKIETLDNLARLLNTSLSSLLG | -2.94
